Test results reported in the supplement of paper PMC9170038.

System: K4 kissing-loop RNA reporter
Experiment: apparent KD of K4 kissing-loop reporter; higher = weaker reporter binding
Conditions: Eterna round: R107
Method: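 RNA-MaP round R107: designed RNA switches with theophylline, tryptophan, arginine or FMN aptamers are transcribed on-chip within common flanks. They are titrated with a labelled K4 kissing-loop RNA reporter in RNA-MaP buffer (100 mM Tris pH 7.5, 80 mM KCl, 4 mM MgCl2), without ligand or with the indicated ligand. Median apparent KD per design.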

[1] = input ligand: theophylline 20 uM
[2] = input ligand: tryptophan 2.4 mM
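Further: bound reporter read as fluorescence of individual clusters on recovered sequencing chips by microscopy, with normalized cluster intensities fitted with a binding model.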

Sequence	apparent KD of K4 kissing-loop reporter (input ligand: FMN 200 uM) [nM]	apparent KD of K4 kissing-loop reporter (input ligand: arginine 13.2 mM) [nM]	apparent KD of K4 kissing-loop reporter (input ligand: none) [nM]	apparent KD of K4 kissing-loop reporter [1] [nM]	apparent KD of K4 kissing-loop reporter [2] [nM]
UGACUGGACUGAAGGAGCGCGCGAGACAAAGUCUCGAACUGCUAGUGAUGUUAGCGAAUAACGCAGGUAGGUCGCAGUCUAGUCU [ArgBS 14 #SwitchBubble #StaticStem]	177	146	175	155	156
UGACUGGACUGAAGGAGCGGGCGAGACAAAGUCUCGAACUCGUAGUGAUGUUAUGAAAUAACCCAGGUAGGUCGCAGUCUAGUCU	1130	684	892	868	789
UGACUGGAUGGAAGGAGCGCUAAACUCCUAGUGAUGUUAGGGACAUGAGGCACAGCCUUGAAGCAGGUAGGUCGCCAUCUAGUCU [FiskerMod 28 - Jieux - Same State - Arginine B]	197	135	176	166	174
UGACUGGAUGGAAGGAGCGCUAAACUCCUAGUGAUGUUAGGGACAUGAGGCAUAGCCUUGAAGCAGGUAGGUCGCCAUCUAGUCU [FiskerMod 29 - Jieux - Same State - Arginine B]	193	132	184	189	144
UGAGGGAUCUCGGCCGCCACUCGUGGGAAAUGGGCCUCAGGGAUAUAGUGAUGUUAUGUAAAGAAGAGGACCGGGAGAAGGAAGG [ExTryptoB.Dh]	230	229	320	386	203
UGAUACCAGACGGCCGCCACUGCACCAGUCAAUGACUGAGUGCGGUAGUGCUCAGUGAUGUUGAGUAGGACCGGGUCUGGUAUCU [Mod of Eli's TrypBX 8 v3]	148	124	131	130	130
UGAUACCAGACUGAUACCAGCGAGUGAUGUUUGUUGAUCAUAAGCAGUCAAAGACUGCUUUGCCCUUGGCAGCAGUCUGGUAUCU [#11 K4 Theophylline B Exclusion]	871	565	838	334	600
UGAUACCAGACUGAUACCAGCUAGUGAUGUUAGCUGAAAUCAGGGUCAAAGACCCUGUCUAGCCCUUGGCAGCAGUCUGGUAUCU [TheoBX 9 #SwitchBubble #StaticStem]	107	93.8	98.3	133	91.5
UGAUACCAGACUGAUACCAGCUAGUGAUGUUAGCUGAUAAACAAACAGGCAAAGCCUGCUAGCCCUUGGCAGCAGUCUGGUAUCU [TheoBX 12 #SwitchBubble #StaticStem]	206	180	193	359	202
UGAUAGGACAGAAGGAGCGGAAGUGAUGUUUCCAAAAGAUAUGAUCGACAAAGUCGAUUUUUCCAGGUAGGUCGCUGUCCUAUCU [KL-XARG-B19]	60.5	84.9	66.8	100	66.6
UGAUAGGACAGAAGGAGCGGAAGUGAUGUUUCCAAAAGGAUAAGGUGUCAAAAGACACCCUUCCAGGUAGGUCGCUGUCCUAUCU [ArgBX 13 #Palindromic #SwitchBubble #StaticStem]	148	165	134	145	136
UGAUAGGACAGAAGGAGCGGGAGUGAUGUUCCCAAAUGGAUAGGUCGACAAAGUCGACCCUCCCAGGUAGGUCGCUGUCCUAUCU [ArgBX 7 #SwitchBubble #StaticStem]	206	246	219	247	187
UGAUAGGACAGAAGGAGCGGUAGUGAUGUUACCAAAAGAAUAAGGUGUCAAAAGACACCCUGCCAGGUAGGUCGCUGUCCUAUCU	97.4	111	90.9	123	86
UGAUAGGACAGAAGGAGCGGUAGUGAUGUUGCCAAAAGGAUAAGGUGUCAAAAGACACCCUGCCAGGUAGGUCGCUGUCCUAUCU	126	136	123	110	99.8
UGAUUGGCGAAAGUAGUGAUGUUACGAAUAUAGGAUAUUAGAGGAAUAAGAAGGAUAAAGGAGAAAUAGGUAAAUUGUUGGUUGG [whbob_SS_FMNA__2th169]	110	59.8	104	128	93.4
UGAUUUAACUGAAGGAGCGGCAAUUGAUAAGUAAAUAUAGUGAUGUUAUAUAAGAUAGAGAGCCAGGUAGGUCGCAGAGGUAUGA [ExArgB.L]	193	159	158	150	139
UGCAGUGAUGUUGCGAGUGGCAGAUACGAAGGAGCGUGGUGAGACACAGGUAGGUCGCGUAUCGAAAUUGCUGUCACUAAAAUGC [#8]	385	411	501	425	460
UGCAGUGAUGUUGCUAUUUUUCUUGAUUAACGAGGACCGGUACGGCCGCCACUCGAUUUCUCUCUAAUCCAGUAUGUUGUUUGAU [whbob_EX_Tryp_A_t4]	97.9	139	112	142	81.1
UGCGCUAUGUCCUAAAACGUCCUCCGGGAUACCAGAGUCUUUUUAUUCCCUUGGCAGCUUGAGUGAUGUUUGAUGCCGUUCUUGU [srrevmullin]	364	215	366	287	315
UGCGCUAUGUCCUAAAACGUCCUCCGGGAUACCAGUGUCUUUUUAUACCCUUGGCAGCUUGAGUGAUGUUUGAUGCCGUUCUUGU [izzxmullin]	432	225	310	386	304
UGCUUUAGAAUACAAGGUAUUUACACUGAUACCAGUCAGUUAAAUGACCCUUGGCAGCAGUGUCAGUGAUGUUGACACAACACAU [Theo A Ex t4]	183	173	180	157	164
